One protein from patent publication US20190119406 can be followed below.

The target in the series is T1, Mutant OB chain (short chain, hinge-CH2-CH3 with T394D, P395D, P396D) [IgG part: P01857].
T1 chain: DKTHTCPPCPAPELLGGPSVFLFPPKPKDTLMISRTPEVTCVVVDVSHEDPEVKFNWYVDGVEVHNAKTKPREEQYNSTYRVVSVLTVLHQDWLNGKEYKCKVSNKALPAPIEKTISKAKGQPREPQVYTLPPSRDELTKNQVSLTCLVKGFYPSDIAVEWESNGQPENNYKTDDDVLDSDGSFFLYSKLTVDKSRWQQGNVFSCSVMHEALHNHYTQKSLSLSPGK
In words: co-transfection of OA and OB in HEK293, protein A bead pull-down, SDS-PAGE (FIGS. 3, 4 and 6).

B1: Mutant OA chain (long chain, CH1-hinge-CH2-CH3 with P395K, P396K, V397K) (protein)
chain: ASTKGPSVFPLAPSSKSTSGGTAALGCLVKDYFPEPVTVSWNSGALTSGVHTFPAVLQSSGLYSLSSVVTVPSSSLGTQTYICNVNHKPSNTKVDKKVEPKSCDKTHTCPPCPAPELLGGPSVFLFPPKPKDTLMISRTPEVTCVVVDVSHEDPEVKFNWYVDGVEVHNAKTKPREEQYNSTYRVVSVLTVLHQDWLNGKEYKCKVSNKALPAPIEKTISKAKGQPREPQVYTLPPSRDELTKNQVSLTCLVKGFYPSDIAVEWESNGQPENNYKTTKKKLDSDGSFFLYSKLTVDKSRWQQGNVFSCSVMHEALHNHYTQKSLSLSPGK
B1: the yield of heterodimer result is “high yield of heterodimer (above 95%)”.
